# Columns and labels:
# Format in all cases: physicochemical
# [1] = Dispersion of hydrophilic species/amphiphile array in hydrophobic solvent: visual optical clarity
# [2] = Turbidity of oil preparations by optical density / absorbance (plate reader); settings: Example 9: egg lysophosphatidyl choline, oleic acid, 4.6 mg insulin/g
# Procedure: It is very much preferred that the preparations of the invention are optically clear and this can be monitored by measuring turbidity at visible wave lengths and, in some cases, by checking for sedimentation over a period of time. […]
# Aprotinin was dissolved in distilled water at a concentration of 10 mg/ml. Hexadecyl phosphocholine (HDPoC) was dissolved in distilled water at a concentration of 100 mg/ml. To aliquots of 100 μl of aprotinin solution, volumes of HDPOC were added ranging from 0 through to 10, 20, 30, 40 to 50 μl. The mixtures were frozen at −20° C. and lyophilised overnight. The following day 100 μl of oleic acid was added to each sample and shaken for one hour at room temperature on an orbital shaker.
# Octyl glucoside was dissolved in distilled water and dispensed into wells of a microplate to give the following amounts of amphiphile per well: −0, 0.5, 1.0, 1.5, 2.0, 2.5, 5, 7.5 and 10 mg. Aprotinin was dissolved in distilled water at a concentration of 5 mg/ml, and 100 μl was dispensed into each well above, containing 0.5 mg of protein. The plate was mixed well, frozen at −20° C. and lyophilised overnight. The following day, […] of oleic acid was added to each well. The plate was shaken at room temperature, and optical density measurements at 550 nm taken at intervals with a plate reader. A low absorbance value indicates a low level of scattering, and corresponds to effective dispersion of protein in oil.
# The results, expressed in terms of optical density as a function of octyl glucoside concentration (at constant protein concentration) at different times after addition of oleic acid are given in the table and accompanying graph.
# [3] = Stability of oil preparations on storage, standing or freeze-thawing (appearance)
# Procedure: Egg PC SUVs at a concentration of 100 mg PC/ml were prepared as in Example 1. An insulin solution at 10 mg/ml was made by preparing an aqueous suspension at a slightly higher concentration, adding glacial acetic acid at a rate of 20 mg/g of insulin used, and then adding sufficient water to give the desired insulin concentration. After mixing and standing for 15 minutes, a clear solution was formed. To 1.25 ml of SUVs in a test-tube, were added 1.25 ml of insulin solution, and the mixture shell-frozen and freeze-dried overnight. The following day, 0.252 g of oleic acid was added and the tube vortexed to completely “wet” the lyophilate.
# The HRPO solution was divided into two -equal portions, and one portion was put through five freeze-thaw cycles by cooling repeatedly to +4° C., solidifying the oleic acid each time, before bringing it back to room temperature.
# The same procedure employed as described in Example 19, except that bovine brain sphingomyelin was used instead of phosphatidyl choline, resulting in proportions by weight of insulin/sphingomyelin/oleic acid of 5/50/200.
# [4] = Centrifugation of melanin dispersions in M818
# [5] = Optical density at 600 nm of melanin solutions in oil (M818) and water; settings: for Measurement at 600 nm, Water: Example 26: melanin alone in distilled water
# Procedure: 10 mg of melanin were added to 1 ml of distilled water, and dissolved after raising pH with ammonium hydroxide solution. 50 ul of this concentrated solution was diluted 20-fold by addition to 950 ul of distilled water. To two rows of seven wells of a microplate 0, 12.5, 25, 37.5, and 50 ul of the dilute solution were added, and 12.5 and 25 ul of the concentrated solution. To each well of one row was added 100 ul of a soya phosphatidyl choline dispersion prepared by sonication for ten minutes with cooling at a concentration of 100 mg/ml. The other row was left untouched, the plate was mixed well, frozen at −20° C. and lyophilised overnight. The following day, 100 ul of M818 were added to wells in the row containing melanin/lipid complex, and 100 ul of distilled water was added to the wells in the row containing melanin alone. […] It will be seen from the table and accompanying graph that Beer-Lambert's law is obeyed over this concentration range (ie the response curve is linear), and that the behaviour of melanin is identical for both oil and aqueous solutions.
substance,measurement,setting,value
insulin,appearance of preparation,"[1]; Example 5: egg PC SUVs, 0.252 g oleic acid, left overnight","yellow, optically clear dispersion displaying strong opalescence"
same,appearance of dispersion,"[1]; Example 6: 5 mg soy PC, 0.47 mg protein, 100 mg diolein, initially granular",became clear after 2 hours
same,appearance of dispersion,"[1]; Example 8: DPPC SUVs 15 mg, 1.4 mg protein, 300 mg oleic acid",clear
same,appearance of dispersion,"[1]; Example 9: egg lysophosphatidyl choline micelles, 0.3 g oleic acid",clear dispersion
same,insulin content of clear dispersion,"[1]; Example 9: egg lysophosphatidyl choline, oleic acid",4.6 mg insulin/g of oleic acid
same,appearance of dispersion,"[1]; Example 10: soy PC SUVs, 300 mg Miglyol 810, following day",slightly opalescent
same,appearance of dispersion,"[1]; Example 10: soy PC SUVs, 300 mg Miglyol 812, following day",completely clear
same,appearance of dispersion,"[1]; Example 10: soy PC SUVs, 300 mg Miglyol 818, following day",completely clear
same,appearance of dispersion,"[1]; Example 10: soy PC SUVs, 300 mg Miglyol 829, following day",turbid gel
same,appearance of dispersion,"[1]; Example 10: soy PC SUVs, 300 mg Miglyol 840, following day",completely clear
same,appearance of solution,"[1]; Example 20: bovine brain sphingomyelin, insulin/sphingomyelin/oleic acid 5/50/200, one hour mixing",completely clear solution
same,appearance of dispersions,"[1]; Example 33: soy PC SUV, melts of tripalmitin, triheptadecanoin or tristearin with 2% oleic acid, 78 C, 1 to 2 hours",almost clear dispersions
same,appearance of dispersion,"[1]; Example 36: AOT amphiphile, 200 mg octanol, standing overnight",clear after standing overnight
same,absorbance at 600 nm,[2],0.023
same,change in appearance (eg sedimentation) on storage,[3]; Example 5: 7 weeks storage under nitrogen in a sealed tube at room temperature,no apparent change in the appearance
same,appearance on standing,"[3]; Example 20: sphingomyelin/oleic acid, room temperature for several days",solid opaque gel
same,appearance of gel on warming,"[3]; Example 20: sphingomyelin/oleic acid, warming to 37° C.",clear solution again
melanin,behaviour of dispersion on centrifugation,[4]; Example 26: dispersed in M818 by sonication in the absence of phosphatidyl choline,"black dispersion, which sedimented out after centrifugation giving a clear supernatant"
same,behaviour of dispersion on centrifugation,[4]; Example 26: melanin/lipid complex dispersed in M818,No such changes were observed after centrifugation
same,"Measurement at 600 nm, Water",[5]; Concn 0.0625 mg/ml,0.072
same,"Measurement at 600 nm, Water",[5]; Concn 0.125 mg/ml,0.159
same,"Measurement at 600 nm, Water",[5]; Concn 0.187 mg/ml,0.23
same,"Measurement at 600 nm, Water",[5]; Concn 0.25 mg/ml,0.333
same,"Measurement at 600 nm, Water",[5]; Concn 1.25 mg/ml,1.259
same,"Measurement at 600 nm, Water",[5]; Concn 2.5 mg/ml,2.653
same,"Measurement at 600 nm, Miglyol","[5]; Example 26: melanin/soya PC complex in M818, Concn 0.0625 mg/ml",0.078
same,"Measurement at 600 nm, Miglyol","[5]; Example 26: melanin/soya PC complex in M818, Concn 0.125 mg/ml",0.157
same,"Measurement at 600 nm, Miglyol","[5]; Example 26: melanin/soya PC complex in M818, Concn 0.187 mg/ml",0.23
same,"Measurement at 600 nm, Miglyol","[5]; Example 26: melanin/soya PC complex in M818, Concn 0.25 mg/ml",0.306
same,"Measurement at 600 nm, Miglyol","[5]; Example 26: melanin/soya PC complex in M818, Concn 1.25 mg/ml",1.565
same,"Measurement at 600 nm, Miglyol","[5]; Example 26: melanin/soya PC complex in M818, Concn 2.5 mg/ml",2.857

# Reference: patent US6368619B1, “Hydrophobic preparations of hydrophilic species and process for their preparation” (Provalis UK Limited, priority 1993, dated 2002)
